Consider one substance from patent CN112972675A.

For the test, the target named is 人PD-1 (程序性死亡受体1) (human) (UniProt Q15116). Briefly: flow cytometry receptor occupancy on patients' peripheral blood T lymphocytes (CD45RA-); bound toripalimab detected with PE-labelled anti-human IgG4 Fc, total PD-1 after saturation with toripalimab; dose groups 1, 3 and 10 mg/kg Q2W. Background: A flow cytometer gives signals particle by particle.

Where only a bound is given, the exact number is not on record here.

Sequence of UniProt Q15116 (Q15116 25-288): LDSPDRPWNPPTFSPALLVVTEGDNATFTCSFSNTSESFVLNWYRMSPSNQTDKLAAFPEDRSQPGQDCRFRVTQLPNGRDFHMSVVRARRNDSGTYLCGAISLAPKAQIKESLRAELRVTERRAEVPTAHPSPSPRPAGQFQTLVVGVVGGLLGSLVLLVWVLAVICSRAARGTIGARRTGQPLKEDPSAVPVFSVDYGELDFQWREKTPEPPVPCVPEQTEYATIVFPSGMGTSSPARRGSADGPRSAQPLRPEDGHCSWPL

Take 特瑞普利单抗(Toripalimab) (antibody): the PD-1受体占位率(RO) is greater than 80%.
